Biological target: PF0699 (conserved hypothetical protein) (Pyrococcus furiosus) (UniProt Q8U2X9)
Experiment: SAXS

## PF0699 (conserved hypothetical protein) (from UniProt Q8U2X9 1-139) (natural protein)
  stoichiometry N: 2

Source: publication PMC3094553
